Data from PMC4958273, “Expression and preliminary characterization of human MICU2” (Biology Open, 2016).

Molecular target: the molecule itself
Assay: SEC-MALS; Ca2+-bound condition (5 mM CaCl2); protein at 0.5-2.5 mg/ml, 200 µl injected, KW-G and KW-803 columns, 0.5 ml/min; monomer to dimer

B1: MICU2-NΔ84-CΔ28 (domain or fragment, human, UniProt Q8IYU8 84-406, looked up)
chain: SLRKQRFMQFSSLEHEGEYYMTPRDFLFSVMFEQMERKTSVKKLTKKDIEDTLSGIQTAGCGSTFFRDLGDKGLISYTEYLFLLTILTKPHSGFHVAFKMLDTDGNEMIEKREFFKLQKIISKQDDLMTVKTNETGYQEAIVKEPEINTTLQMRFFGKRGQRKLHYKEFRRFMENLQTEIQEMEFLQFSKGLSFMRKEDFAEWLLFFTNTENKDIYWKNVREKLSAGESISLDEFKSFCHFTTHLEDFAIAMQMFSLAHRPVRLAEFKRAVKVATGQELSNNILDTVFKIFDLDGDECLSHEEFLGVLKNRMHRGLWVPQHQS
notes: human MICU2 (BC031089.1), N-terminal deletion starting at amino acid 84, the C-terminal 28 amino acids deleted; lacks Cys413; Predicted molecular weight ~40 kDa; source: E. coli BL21 (DE3); purified (Ni-NTA, SEC) for MALLS; in lysate (cells mixed and sonicated together) for the pull-down; not shown: His-tag, N-terminal, kept
  stoichiometry N: 2
